Literature values, collected in publication PMC2574613.

Biological target: glycoprotein Ibα (Homo sapiens) (UniProt P07359)
Sequence (P07359 17-652): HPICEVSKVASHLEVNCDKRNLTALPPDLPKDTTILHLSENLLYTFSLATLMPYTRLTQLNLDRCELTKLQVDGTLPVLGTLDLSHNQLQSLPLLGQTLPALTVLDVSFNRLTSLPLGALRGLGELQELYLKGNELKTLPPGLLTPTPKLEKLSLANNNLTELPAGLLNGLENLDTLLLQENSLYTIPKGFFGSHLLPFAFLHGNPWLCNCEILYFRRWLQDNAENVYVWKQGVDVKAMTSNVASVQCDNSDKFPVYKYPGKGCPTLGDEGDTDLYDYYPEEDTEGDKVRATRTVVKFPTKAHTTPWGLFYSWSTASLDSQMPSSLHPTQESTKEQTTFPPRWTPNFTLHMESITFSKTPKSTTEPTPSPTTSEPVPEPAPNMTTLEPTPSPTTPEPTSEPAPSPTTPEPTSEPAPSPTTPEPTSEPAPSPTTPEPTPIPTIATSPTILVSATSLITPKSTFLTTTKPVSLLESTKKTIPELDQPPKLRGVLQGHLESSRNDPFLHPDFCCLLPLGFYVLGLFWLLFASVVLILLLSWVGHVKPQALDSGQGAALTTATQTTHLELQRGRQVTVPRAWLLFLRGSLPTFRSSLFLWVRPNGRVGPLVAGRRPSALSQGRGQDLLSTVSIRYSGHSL

Chain of GspB N-terminal basic region (Q939N5 237-603): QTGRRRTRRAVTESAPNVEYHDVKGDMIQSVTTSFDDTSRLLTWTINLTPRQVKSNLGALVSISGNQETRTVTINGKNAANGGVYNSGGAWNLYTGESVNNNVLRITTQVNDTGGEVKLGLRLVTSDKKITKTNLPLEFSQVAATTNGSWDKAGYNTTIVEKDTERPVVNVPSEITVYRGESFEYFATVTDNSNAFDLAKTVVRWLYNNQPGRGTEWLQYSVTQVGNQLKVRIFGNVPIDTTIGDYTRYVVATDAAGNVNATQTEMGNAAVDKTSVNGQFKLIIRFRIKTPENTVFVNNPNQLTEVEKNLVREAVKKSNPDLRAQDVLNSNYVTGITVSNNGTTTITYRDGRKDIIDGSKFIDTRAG

Q: For “GspB N-terminal basic region (from UniProt Q939N5)”, which Kd is on record?
A: 0.0238 µM
